These results are taken from patent US20240150411A1 (University of Washington, published 2024).

In the test the target is T1, I53-50A trimer.
T1 construct: also called trimeric I53-50A
T1 chain: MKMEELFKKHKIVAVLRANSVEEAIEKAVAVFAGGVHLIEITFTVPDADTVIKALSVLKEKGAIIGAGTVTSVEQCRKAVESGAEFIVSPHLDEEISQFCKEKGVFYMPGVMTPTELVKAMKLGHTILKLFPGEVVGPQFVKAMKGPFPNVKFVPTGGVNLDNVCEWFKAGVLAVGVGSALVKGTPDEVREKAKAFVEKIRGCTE
In words: in vitro co-assembly into partial valency nanostructures, purified by size exclusion chromatography.

B1: I53-50B.4PosT1 pentamer (designed binder)
chain: MNQHSHKDHETVRIAVVRARWHAEIVDACVSAFEAAMRDIGGDRFAVDVFDVPGAYEIPLHARTLAETGRYGAVLGTAFVVNGGIYRHEFVASAVINGMMNVQLNTGVPVLSAVLTPHNYDKSKAHTLLFLALFAVKGMEAARACVEILAAREKIAA
notes: Expressed and purified as in Bale et al; also called I53-50B.4PT1; I53-50B.4PosT1 pentamers
For B1, the binding result is “binds”.
